In patent US20220017612A1:

The binders below were run against biotinylated human LAP-TGFβ1 (Example 14) (human) (UniProt P01137) (assay: BLI, antigen on tip, CHO supernatant; ratio to wild type).
Chain of biotinylated human LAP-TGFβ1 (Example 14) (human) (P01137 30-390 limits assumed): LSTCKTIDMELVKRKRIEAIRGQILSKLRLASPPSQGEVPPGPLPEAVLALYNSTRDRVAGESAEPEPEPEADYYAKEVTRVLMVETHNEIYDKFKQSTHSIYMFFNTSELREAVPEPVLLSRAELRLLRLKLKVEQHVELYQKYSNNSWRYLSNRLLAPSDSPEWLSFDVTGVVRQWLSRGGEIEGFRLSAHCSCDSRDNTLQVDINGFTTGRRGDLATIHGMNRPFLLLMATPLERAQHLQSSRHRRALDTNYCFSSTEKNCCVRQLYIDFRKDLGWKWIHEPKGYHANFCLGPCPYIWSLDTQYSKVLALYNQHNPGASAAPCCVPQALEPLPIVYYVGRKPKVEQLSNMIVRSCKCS

Binder	KD,WT/KD,Ala
20E6_H0.2aL1_hIgG1 VH_R50A (antibody, V domains shown) VH: EVQLVQSGAEVKKPGASVKVSCKASGYTFTSYWMHWVRQAPGQGLEWMGAIDPQSGGIKYAQKFQGRATLTVDTSTSTAYMELSRLRSDDTAVYYCARWDYGGYFDVWGQGTLVTVSS VL: DIQMTQSPSSLSASVGDRVTITCRASQDITNYLNWYQQKPGKAVKLLIYYTSRLHSGVPSRFSGSGSGTDYTLTISSLQPEDFATYFCQQGDTLPWTFGQGTKLEIKR	0
20E6_H0.2aL1_hIgG1 VH_W99A (antibody, V domains shown) VH: EVQLVQSGAEVKKPGASVKVSCKASGYTFTSYWMHWVRQAPGQGLEWMGRIDPQSGGIKYAQKFQGRATLTVDTSTSTAYMELSRLRSDDTAVYYCARADYGGYFDVWGQGTLVTVSS VL: DIQMTQSPSSLSASVGDRVTITCRASQDITNYLNWYQQKPGKAVKLLIYYTSRLHSGVPSRFSGSGSGTDYTLTISSLQPEDFATYFCQQGDTLPWTFGQGTKLEIKR	0
20E6_H0.2aL1_hIgG1 VL_A25G (antibody, V domains shown) VH: EVQLVQSGAEVKKPGASVKVSCKASGYTFTSYWMHWVRQAPGQGLEWMGRIDPQSGGIKYAQKFQGRATLTVDTSTSTAYMELSRLRSDDTAVYYCARWDYGGYFDVWGQGTLVTVSS VL: DIQMTQSPSSLSASVGDRVTITCRGSQDITNYLNWYQQKPGKAVKLLIYYTSRLHSGVPSRFSGSGSGTDYTLTISSLQPEDFATYFCQQGDTLPWTFGQGTKLEIKR	0.09
20E6_H0.2aL1_hIgG1 VH_Y101A (antibody, V domains shown) VH: EVQLVQSGAEVKKPGASVKVSCKASGYTFTSYWMHWVRQAPGQGLEWMGRIDPQSGGIKYAQKFQGRATLTVDTSTSTAYMELSRLRSDDTAVYYCARWDAGGYFDVWGQGTLVTVSS VL: DIQMTQSPSSLSASVGDRVTITCRASQDITNYLNWYQQKPGKAVKLLIYYTSRLHSGVPSRFSGSGSGTDYTLTISSLQPEDFATYFCQQGDTLPWTFGQGTKLEIKR	0
20E6_H0.2aL1_hIgG1 VH_G102A (antibody, V domains shown) VH: EVQLVQSGAEVKKPGASVKVSCKASGYTFTSYWMHWVRQAPGQGLEWMGRIDPQSGGIKYAQKFQGRATLTVDTSTSTAYMELSRLRSDDTAVYYCARWDYAGYFDVWGQGTLVTVSS VL: DIQMTQSPSSLSASVGDRVTITCRASQDITNYLNWYQQKPGKAVKLLIYYTSRLHSGVPSRFSGSGSGTDYTLTISSLQPEDFATYFCQQGDTLPWTFGQGTKLEIKR	0
20E6_H0.2aL1_hIgG1 VH_F105A (antibody, V domains shown) VH: EVQLVQSGAEVKKPGASVKVSCKASGYTFTSYWMHWVRQAPGQGLEWMGRIDPQSGGIKYAQKFQGRATLTVDTSTSTAYMELSRLRSDDTAVYYCARWDYGGYADVWGQGTLVTVSS VL: DIQMTQSPSSLSASVGDRVTITCRASQDITNYLNWYQQKPGKAVKLLIYYTSRLHSGVPSRFSGSGSGTDYTLTISSLQPEDFATYFCQQGDTLPWTFGQGTKLEIKR	0
20E6_H0.2aL1_hIgG1 VL_D28A (antibody, V domains shown) VH: EVQLVQSGAEVKKPGASVKVSCKASGYTFTSYWMHWVRQAPGQGLEWMGRIDPQSGGIKYAQKFQGRATLTVDTSTSTAYMELSRLRSDDTAVYYCARWDYGGYFDVWGQGTLVTVSS VL: DIQMTQSPSSLSASVGDRVTITCRASQAITNYLNWYQQKPGKAVKLLIYYTSRLHSGVPSRFSGSGSGTDYTLTISSLQPEDFATYFCQQGDTLPWTFGQGTKLEIKR	0
20E6_H0.2aL1_hIgG1 VH_Y104A (antibody, V domains shown) VH: EVQLVQSGAEVKKPGASVKVSCKASGYTFTSYWMHWVRQAPGQGLEWMGRIDPQSGGIKYAQKFQGRATLTVDTSTSTAYMELSRLRSDDTAVYYCARWDYGGAFDVWGQGTLVTVSS VL: DIQMTQSPSSLSASVGDRVTITCRASQDITNYLNWYQQKPGKAVKLLIYYTSRLHSGVPSRFSGSGSGTDYTLTISSLQPEDFATYFCQQGDTLPWTFGQGTKLEIKR	0
20E6_H0.2aL1_hIgG1 VH_G103A (antibody, V domains shown) VH: EVQLVQSGAEVKKPGASVKVSCKASGYTFTSYWMHWVRQAPGQGLEWMGRIDPQSGGIKYAQKFQGRATLTVDTSTSTAYMELSRLRSDDTAVYYCARWDYGAYFDVWGQGTLVTVSS VL: DIQMTQSPSSLSASVGDRVTITCRASQDITNYLNWYQQKPGKAVKLLIYYTSRLHSGVPSRFSGSGSGTDYTLTISSLQPEDFATYFCQQGDTLPWTFGQGTKLEIKR	0

Next, values leading:

KD,WT/KD,Ala	Binder
0	20E6_H0.2aL1_hIgG1 VL_Q90A (antibody, V domains shown) VH: EVQLVQSGAEVKKPGASVKVSCKASGYTFTSYWMHWVRQAPGQGLEWMGRIDPQSGGIKYAQKFQGRATLTVDTSTSTAYMELSRLRSDDTAVYYCARWDYGGYFDVWGQGTLVTVSS VL: DIQMTQSPSSLSASVGDRVTITCRASQDITNYLNWYQQKPGKAVKLLIYYTSRLHSGVPSRFSGSGSGTDYTLTISSLQPEDFATYFCQAGDTLPWTFGQGTKLEIKR
0	20E6_H0.2aL1_hIgG1 VL_G91A (antibody, V domains shown) VH: EVQLVQSGAEVKKPGASVKVSCKASGYTFTSYWMHWVRQAPGQGLEWMGRIDPQSGGIKYAQKFQGRATLTVDTSTSTAYMELSRLRSDDTAVYYCARWDYGGYFDVWGQGTLVTVSS VL: DIQMTQSPSSLSASVGDRVTITCRASQDITNYLNWYQQKPGKAVKLLIYYTSRLHSGVPSRFSGSGSGTDYTLTISSLQPEDFATYFCQQADTLPWTFGQGTKLEIKR
0	20E6_H0.2aL1_hIgG1 VL_P95A (antibody, V domains shown) VH: EVQLVQSGAEVKKPGASVKVSCKASGYTFTSYWMHWVRQAPGQGLEWMGRIDPQSGGIKYAQKFQGRATLTVDTSTSTAYMELSRLRSDDTAVYYCARWDYGGYFDVWGQGTLVTVSS VL: DIQMTQSPSSLSASVGDRVTITCRASQDITNYLNWYQQKPGKAVKLLIYYTSRLHSGVPSRFSGSGSGTDYTLTISSLQPEDFATYFCQQGDTLAWTFGQGTKLEIKR
0	20E6_H0.2aL1_hIgG1 VL_W96A (antibody, V domains shown) VH: EVQLVQSGAEVKKPGASVKVSCKASGYTFTSYWMHWVRQAPGQGLEWMGRIDPQSGGIKYAQKFQGRATLTVDTSTSTAYMELSRLRSDDTAVYYCARWDYGGYFDVWGQGTLVTVSS VL: DIQMTQSPSSLSASVGDRVTITCRASQDITNYLNWYQQKPGKAVKLLIYYTSRLHSGVPSRFSGSGSGTDYTLTISSLQPEDFATYFCQQGDTLPATFGQGTKLEIKR
0	20E6_H0.2aL1_hIgG1 VL_Y32A (antibody, V domains shown) VH: EVQLVQSGAEVKKPGASVKVSCKASGYTFTSYWMHWVRQAPGQGLEWMGRIDPQSGGIKYAQKFQGRATLTVDTSTSTAYMELSRLRSDDTAVYYCARWDYGGYFDVWGQGTLVTVSS VL: DIQMTQSPSSLSASVGDRVTITCRASQDITNALNWYQQKPGKAVKLLIYYTSRLHSGVPSRFSGSGSGTDYTLTISSLQPEDFATYFCQQGDTLPWTFGQGTKLEIKR
0	20E6_H0.2aL1_hIgG1 VL_Y50A (antibody, V domains shown) VH: EVQLVQSGAEVKKPGASVKVSCKASGYTFTSYWMHWVRQAPGQGLEWMGRIDPQSGGIKYAQKFQGRATLTVDTSTSTAYMELSRLRSDDTAVYYCARWDYGGYFDVWGQGTLVTVSS VL: DIQMTQSPSSLSASVGDRVTITCRASQDITNYLNWYQQKPGKAVKLLIYATSRLHSGVPSRFSGSGSGTDYTLTISSLQPEDFATYFCQQGDTLPWTFGQGTKLEIKR
0.01	20E6_H0.2aL1_hIgG1 VL_T97A (antibody, V domains shown) VH: EVQLVQSGAEVKKPGASVKVSCKASGYTFTSYWMHWVRQAPGQGLEWMGRIDPQSGGIKYAQKFQGRATLTVDTSTSTAYMELSRLRSDDTAVYYCARWDYGGYFDVWGQGTLVTVSS VL: DIQMTQSPSSLSASVGDRVTITCRASQDITNYLNWYQQKPGKAVKLLIYYTSRLHSGVPSRFSGSGSGTDYTLTISSLQPEDFATYFCQQGDTLPWAFGQGTKLEIKR
0.07	20E6_H0.2aL1_hIgG1 VL_N34A (antibody, V domains shown) VH: EVQLVQSGAEVKKPGASVKVSCKASGYTFTSYWMHWVRQAPGQGLEWMGRIDPQSGGIKYAQKFQGRATLTVDTSTSTAYMELSRLRSDDTAVYYCARWDYGGYFDVWGQGTLVTVSS VL: DIQMTQSPSSLSASVGDRVTITCRASQDITNYLAWYQQKPGKAVKLLIYYTSRLHSGVPSRFSGSGSGTDYTLTISSLQPEDFATYFCQQGDTLPWTFGQGTKLEIKR
0	20E6_H0.2aL1_hIgG1 VL_L94A (antibody, V domains shown) VH: EVQLVQSGAEVKKPGASVKVSCKASGYTFTSYWMHWVRQAPGQGLEWMGRIDPQSGGIKYAQKFQGRATLTVDTSTSTAYMELSRLRSDDTAVYYCARWDYGGYFDVWGQGTLVTVSS VL: DIQMTQSPSSLSASVGDRVTITCRASQDITNYLNWYQQKPGKAVKLLIYYTSRLHSGVPSRFSGSGSGTDYTLTISSLQPEDFATYFCQQGDTAPWTFGQGTKLEIKR
0.03	20E6_H0.2aL1_hIgG1 VL_Q27A (antibody, V domains shown) VH: EVQLVQSGAEVKKPGASVKVSCKASGYTFTSYWMHWVRQAPGQGLEWMGRIDPQSGGIKYAQKFQGRATLTVDTSTSTAYMELSRLRSDDTAVYYCARWDYGGYFDVWGQGTLVTVSS VL: DIQMTQSPSSLSASVGDRVTITCRASADITNYLNWYQQKPGKAVKLLIYYTSRLHSGVPSRFSGSGSGTDYTLTISSLQPEDFATYFCQQGDTLPWTFGQGTKLEIKR
0.08	20E6_H0.2aL1_hIgG1 VL_L33A (antibody, V domains shown) VH: EVQLVQSGAEVKKPGASVKVSCKASGYTFTSYWMHWVRQAPGQGLEWMGRIDPQSGGIKYAQKFQGRATLTVDTSTSTAYMELSRLRSDDTAVYYCARWDYGGYFDVWGQGTLVTVSS VL: DIQMTQSPSSLSASVGDRVTITCRASQDITNYANWYQQKPGKAVKLLIYYTSRLHSGVPSRFSGSGSGTDYTLTISSLQPEDFATYFCQQGDTLPWTFGQGTKLEIKR
0	20E6_H0.2aL1_hIgG1 VL_D92A (antibody, V domains shown) VH: EVQLVQSGAEVKKPGASVKVSCKASGYTFTSYWMHWVRQAPGQGLEWMGRIDPQSGGIKYAQKFQGRATLTVDTSTSTAYMELSRLRSDDTAVYYCARWDYGGYFDVWGQGTLVTVSS VL: DIQMTQSPSSLSASVGDRVTITCRASQDITNYLNWYQQKPGKAVKLLIYYTSRLHSGVPSRFSGSGSGTDYTLTISSLQPEDFATYFCQQGATLPWTFGQGTKLEIKR
